Experimental findings from article doi:10.1101/2021.02.16.431021 (bioRxiv, 2021) are described below.

This data set deals with the molecule itself. Description: crystal structure.

B1: SARS-CoV main protease (M^pro) (enzyme)
chain: SGFRKMAFPSGKVEGCMVQVTCGTTTLNGLWLDDTVYCPRHVICTAEDMLNPNYEDLLIRKSNHSFLVQAGNVQLRVIGHSMQNCLLRLKVDTSNPKTPKYKFVRIQPGQTFSVLACYNGSPSGVYQCAMRPNHTIKGSFLNGSCGSVGFNIDYDCVSFCYMHHMELPTGVHAGTDLEGKFYGPFVDRQTAQAAGTDTTITLNVLAWLYAAVINGDRWFLNRFTTTLNDFNLVAMKYNYEPLTQDHVDILGPLSAQTGIAVLDMCAALKELLQNGMNGRTILGSTILEDEFTPFDVVRQCSGVTFQ
For B1, the binding result is “binds”.
